Reference: patent publication US20100310640A1

Tests used:
Assay in all cases: radiolabeled-peptide inhibition, purified HLA-DR
Settings in all cases: remark: other sources report otherwise
[1] = biological target: HLA-DR DRB1*1501 (human)
[2] = biological target: T1, HLA-DR DRB1*0401 (human)
T1 chain 1: not shown
T1 chain 2: not shown

[3] = biological target: T2, HLA-DR DRB1*0101 (human)
T2 chain 1: not shown
T2 chain 2: not shown

[4] = biological target: T3, HLA-DR DRB1*0701 (human)
T3 chain 1: not shown
T3 chain 2: not shown

[5] = biological target: T4, HLA-DR DRB1*0404 (human)
T4 chain 1: not shown
T4 chain 2: not shown

[6] = biological target: T5, HLA-DR DRB1*1101 (human)
T5 chain 1: not shown
T5 chain 2: not shown

[7] = biological target: T6, HLA-DR DRB4*0101 (human)
T6 chain 1: not shown
T6 chain 2: not shown

How did the IC50 [1] turn out when SLTLQGLGISWLGLR [9019.0055] was run?
The IC50 was 50 nM.

And the IC50 [2]?
The IC50 was 143 nM.

And the IC50 [3]?
The IC50 was 93 nM.

And the IC50 [4]?
The IC50 was 3100 nM.

What about the IC50 [5] of the same binder?
Its IC50 is 110 nM.

And the IC50 [6]?
Its IC50 is 6310 nM.

What about the IC50 [7] of the same binder?
The IC50 was 22 nM.
